Assay results reported in IntAct's records for PubMed 14707132.

Biological target: pak1_rat Pak1 (UniProt P35465)
Sequence (P35465 whole entry): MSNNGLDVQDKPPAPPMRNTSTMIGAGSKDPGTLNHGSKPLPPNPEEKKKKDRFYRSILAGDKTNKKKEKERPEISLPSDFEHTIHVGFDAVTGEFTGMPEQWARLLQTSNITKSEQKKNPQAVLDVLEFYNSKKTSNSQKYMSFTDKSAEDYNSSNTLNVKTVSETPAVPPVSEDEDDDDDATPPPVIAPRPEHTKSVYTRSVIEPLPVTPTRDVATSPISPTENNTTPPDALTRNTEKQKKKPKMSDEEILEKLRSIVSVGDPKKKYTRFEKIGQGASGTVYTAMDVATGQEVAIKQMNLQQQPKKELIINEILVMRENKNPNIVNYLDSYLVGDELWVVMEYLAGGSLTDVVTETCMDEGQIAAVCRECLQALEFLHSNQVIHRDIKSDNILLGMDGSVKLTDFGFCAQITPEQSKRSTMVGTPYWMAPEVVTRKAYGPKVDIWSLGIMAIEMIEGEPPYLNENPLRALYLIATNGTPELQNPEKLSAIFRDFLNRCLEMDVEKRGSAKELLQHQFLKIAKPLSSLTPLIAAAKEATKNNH

Serine/threonine-protein kinase OSR1 (Homo sapiens), O95747 K46A, sequence (O95747 whole entry K46A): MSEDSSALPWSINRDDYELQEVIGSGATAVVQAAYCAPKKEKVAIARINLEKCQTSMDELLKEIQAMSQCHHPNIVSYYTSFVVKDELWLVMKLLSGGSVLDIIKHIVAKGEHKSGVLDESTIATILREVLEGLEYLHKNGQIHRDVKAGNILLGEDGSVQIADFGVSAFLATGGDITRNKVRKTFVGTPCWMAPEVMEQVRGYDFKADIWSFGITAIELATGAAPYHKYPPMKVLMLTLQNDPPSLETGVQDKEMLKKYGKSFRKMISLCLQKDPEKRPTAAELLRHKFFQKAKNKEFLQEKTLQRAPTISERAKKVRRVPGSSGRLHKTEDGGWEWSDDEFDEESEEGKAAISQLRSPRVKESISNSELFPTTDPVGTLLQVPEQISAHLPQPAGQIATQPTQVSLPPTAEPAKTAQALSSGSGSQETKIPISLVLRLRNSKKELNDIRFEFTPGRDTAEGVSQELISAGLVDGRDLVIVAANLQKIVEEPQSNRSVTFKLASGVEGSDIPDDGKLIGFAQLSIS

Serine/threonine-protein kinase OSR1 (Homo sapiens), O95747 K46A
effect of a mutation on the interaction: decreasing interaction
